# Where two headings read alike, the source gives them in different places.
# Legend:
# [1] = biological target: T1, SARS-CoV-2 D614G spike protein (on pseudotyped lentivirus) (SARS-CoV-2, UniProt P0DTC2 14-1273); test: cell-based or functional assay
# [2] = biological target: T2, SARS-CoV-2 Omicron BA.4/BA.5 spike protein (on pseudotyped lentivirus) (SARS-CoV-2, UniProt P0DTC2 14-1273); test: cell-based or functional assay
# [3] = biological target: T3, SARS-CoV-2 Omicron XBB spike protein (on pseudotyped lentivirus) (SARS-CoV-2, UniProt P0DTC2 14-1273); test: cell-based or functional assay
# [4] = biological target: T4, SARS-CoV-2 B.1.1.7 spike protein (on pseudotyped lentivirus) (SARS-CoV-2); test: cell-based or functional assay
# [5] = biological target: T5, SARS-CoV-2 Omicron BA.2 spike protein (on pseudotyped lentivirus) (SARS-CoV-2); test: cell-based or functional assay
# [6] = biological target: T6, SARS-CoV-2 Omicron BJ.1 spike protein (on pseudotyped lentivirus) (SARS-CoV-2, UniProt P0DTC2 14-1273); test: cell-based or functional assay
# [7] = biological target: T7, SARS-CoV-2 B.1.617.2 spike protein (on pseudotyped lentivirus) (SARS-CoV-2); test: cell-based or functional assay
# [8] = biological target: T8, SARS-CoV-2 Omicron BA.4.6 spike protein (on pseudotyped lentivirus) (SARS-CoV-2); test: cell-based or functional assay
# [9] = biological target: T9, SARS-CoV-2 Omicron BA.2.75.2 spike protein (on pseudotyped lentivirus) (SARS-CoV-2); test: cell-based or functional assay
# [10] = biological target: T10, SARS-CoV-2 P.1 spike protein (on pseudotyped lentivirus) (SARS-CoV-2); test: cell-based or functional assay
# [11] = biological target: T11, SARS-CoV-2 Omicron BA.2.75 spike protein (on pseudotyped lentivirus) (SARS-CoV-2, UniProt P0DTC2 14-1273); test: cell-based or functional assay
# [12] = biological target: T12, SARS-CoV-2 Omicron BQ.1.1 spike protein (on pseudotyped lentivirus) (SARS-CoV-2, UniProt P0DTC2 14-1273); test: cell-based or functional assay
# [13] = biological target: T13, SARS-CoV-2 B.1.351 spike protein (on pseudotyped lentivirus) (SARS-CoV-2); test: cell-based or functional assay
# [14] = biological target: T1, SARS-CoV-2 D614G spike protein (on …); test: cell-based or functional assay; remark: listed apart in the source
# [15] = biological target: T2, SARS-CoV-2 Omicron BA.4/BA.5 spike …; test: cell-based or functional assay; remark: listed apart in the source
# [16] = biological target: T3, SARS-CoV-2 Omicron XBB spike protein …; test: cell-based or functional assay; remark: listed apart in the source
# [17] = biological target: T4, SARS-CoV-2 B.1.1.7 spike protein (on …); test: cell-based or functional assay; remark: listed apart in the source
# [18] = biological target: T5, SARS-CoV-2 Omicron BA.2 spike protein …; test: cell-based or functional assay; remark: listed apart in the source
# [19] = biological target: T6, SARS-CoV-2 Omicron BJ.1 spike protein …; test: cell-based or functional assay; remark: listed apart in the source
# [20] = biological target: T7, SARS-CoV-2 B.1.617.2 spike protein (on …); test: cell-based or functional assay; remark: listed apart in the source
# [21] = biological target: T8, SARS-CoV-2 Omicron BA.4.6 spike protein …; test: cell-based or functional assay; remark: listed apart in the source
# [22] = biological target: T9, SARS-CoV-2 Omicron BA.2.75.2 spike …; test: cell-based or functional assay; remark: listed apart in the source
# [23] = biological target: T10, SARS-CoV-2 P.1 spike protein (on …); test: cell-based or functional assay; remark: listed apart in the source
# [24] = biological target: T11, SARS-CoV-2 Omicron BA.2.75 spike …; test: cell-based or functional assay; remark: listed apart in the source
# [25] = biological target: T12, SARS-CoV-2 Omicron BQ.1.1 spike protein …; test: cell-based or functional assay; remark: listed apart in the source
# [26] = biological target: T13, SARS-CoV-2 B.1.351 spike protein (on …); test: cell-based or functional assay; remark: listed apart in the source
# [27] = biological target: SARS-CoV-2 omicron-BA.1 RBD protein (SARS-CoV-2, UniProt P0DTC2 319-541)
binder,measurement,setting,value
"B2-269.1 (antibody, V domains shown) VH: EVQLVESGGGLVQPGGSLRLSCAASGITVSSNYMSWVRQPPGKGLDWVSLIFSGGSTYYADSVKGRFTISRDNSKNTLYLQMNSLRAEDTAVYYCARVGVAVAGTDYDIWGQGTMVTVSS VL: DIQMTQSPSSLSASVGDRVTITCQASQDINKYLNWYQQKPGKAPKLLIYDASNLETGVPSRFSGSGSGTDFTFTISSLQPEDIATYYCLHYENLPLSFGGGTKVEIK",neutralization IC50,[1],< 0.1 µg/mL
same,neutralization IC50,[2],< 0.1 µg/mL
same,neutralization IC50,[3],< 1.1 µg/mL
same,neutralization IC50,[4],< 0.1 µg/mL
same,neutralization IC50,[5],< 0.1 µg/mL
same,neutralization IC50,[6],< 0.1 µg/mL
same,neutralization IC50,[7],< 0.1 µg/mL
same,neutralization IC50,[8],< 0.1 µg/mL
same,neutralization IC50,[9],< 1.1 µg/mL
same,neutralization IC50,[10],< 0.1 µg/mL
same,neutralization IC50,[11],< 1.1 µg/mL
same,neutralization IC50,[12],< 0.1 µg/mL
same,neutralization IC50,[13],< 0.1 µg/mL
same,neutralization IC50,[14],0.017 µg/mL
same,neutralization IC80,[14],0.039 µg/mL
same,neutralization IC50,[15],0.013 µg/mL
same,neutralization IC80,[15],0.036 µg/mL
same,neutralization IC50,[16],0.179 µg/mL
same,neutralization IC80,[16],3.56 µg/mL
same,neutralization IC50,[17],0.02 µg/mL
same,neutralization IC80,[17],0.034 µg/mL
same,neutralization IC50,[18],0.01 µg/mL
same,neutralization IC80,[18],0.032 µg/mL
same,neutralization IC50,[19],0.001 µg/mL
same,neutralization IC80,[19],0.008 µg/mL
same,neutralization IC50,[20],0.028 µg/mL
same,neutralization IC80,[20],0.054 µg/mL
same,neutralization IC50,[21],0.011 µg/mL
same,neutralization IC80,[21],0.031 µg/mL
same,neutralization IC50,[22],0.709 µg/mL
same,neutralization IC80,[22],2.5 µg/mL
same,neutralization IC50,[23],0.01 µg/mL
same,neutralization IC80,[23],0.025 µg/mL
same,neutralization IC50,[24],1.14 µg/mL
same,neutralization IC80,[24],3.54 µg/mL
same,neutralization IC50,[25],0.126 µg/mL
same,neutralization IC80,[25],0.576 µg/mL
same,neutralization IC50,[26],0.007 µg/mL
same,neutralization IC80,[26],0.022 µg/mL
same,EC50 (read off the curve),[27],~0.04 µg/mL

# Source: US20260209317A1 (US Dept. of Health and Human Services, published 2026)
